Data on one molecule can be found in patent US20230183334A1, “THERAPEUTIC ANTIBODY FORMULATION” (published 2023).

This test addresses T1, IL-17A (human, UniProt Q16552).
T1 sequence: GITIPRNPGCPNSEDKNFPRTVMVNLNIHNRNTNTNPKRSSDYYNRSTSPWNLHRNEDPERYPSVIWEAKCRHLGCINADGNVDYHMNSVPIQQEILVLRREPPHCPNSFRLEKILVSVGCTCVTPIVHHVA
Description: cell-based or functional assay.

B1: ixekizumab (antibody, V domains shown)
VH: QVQLVQSGAEVKKPGSSVKVSCKASGYSFTDYHIHWVRQAPGQGLEWMGVINPMYGTTDYNQRFKGRVTITADESTSTAYMELSSLRSEDTAVYYCARYDYFTGTGVYWGQGTLVTVSS
VL: DIVMTQTPLSLSVTPGQPASISCRSSRSLVHSRGNTYLHWYLQKPGQSPQLLIYKVSNRFIGVPDRFSGSGSGTDFTLKISRVEAEDVGVYYCSQSTHLPFTFGQGTKLEIKR
Turning to B1, the “Relative potency of Formulation A (% relative to Formulation B; ratio of EC50s), 1 month at 5° C.” value is 101%; the “Relative potency of Formulation A (% relative to Formulation B; ratio of EC50s), 1 month at 25° C.” value came to 98%; the “Relative potency of Formulation A (% relative to Formulation B; ratio of EC50s), 1 month at 35° C.” value is 101%; the “Relative potency of Formulation A (% relative to Formulation B; ratio of EC50s), 6 months at 5° C.” value was determined as 103%. Further, the “Relative potency of Formulation A (% relative to Formulation B; ratio of EC50s), 12 months at 5° C.” value was determined as 98%.
